According to publication doi:10.1101/2022.04.14.487897 (bioRxiv, 2022):
Values belong to the molecule of their own block, whether it stands above or below them.

Legend:
mortalin (HSPA9) [1] = molecular target: mortalin (HSPA9) (UniProt P38646); assay: MST
mortalin (HSPA9) [2] = molecular target: mortalin (HSPA9) (UniProt P38646 47-679, Alexa 647 dye (NanoTemper) / NT-647 label); assay: MST
[3] = molecular target: H26Y cytochrome c (globular structure, high peroxidase activity) (UniProt P00004); assay: enzyme inhibition
[4] = molecular target: ferrous cytochrome c (Fe2+), horse heart (horse, UniProt P00004 1-105, heme iron ferrous (Fe^2+)); assay: enzyme inhibition
Chain of ferrous cytochrome c (Fe2+), horse heart (P00004 whole entry): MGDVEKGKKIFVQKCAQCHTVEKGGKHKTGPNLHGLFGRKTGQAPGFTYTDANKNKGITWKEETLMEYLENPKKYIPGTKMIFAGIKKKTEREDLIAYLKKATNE

Chain of mortalin (HSPA9) (UniProt P38646 47-679, Alexa 647 dye (NanoTemper) / NT-647 label) (P38646 47-679): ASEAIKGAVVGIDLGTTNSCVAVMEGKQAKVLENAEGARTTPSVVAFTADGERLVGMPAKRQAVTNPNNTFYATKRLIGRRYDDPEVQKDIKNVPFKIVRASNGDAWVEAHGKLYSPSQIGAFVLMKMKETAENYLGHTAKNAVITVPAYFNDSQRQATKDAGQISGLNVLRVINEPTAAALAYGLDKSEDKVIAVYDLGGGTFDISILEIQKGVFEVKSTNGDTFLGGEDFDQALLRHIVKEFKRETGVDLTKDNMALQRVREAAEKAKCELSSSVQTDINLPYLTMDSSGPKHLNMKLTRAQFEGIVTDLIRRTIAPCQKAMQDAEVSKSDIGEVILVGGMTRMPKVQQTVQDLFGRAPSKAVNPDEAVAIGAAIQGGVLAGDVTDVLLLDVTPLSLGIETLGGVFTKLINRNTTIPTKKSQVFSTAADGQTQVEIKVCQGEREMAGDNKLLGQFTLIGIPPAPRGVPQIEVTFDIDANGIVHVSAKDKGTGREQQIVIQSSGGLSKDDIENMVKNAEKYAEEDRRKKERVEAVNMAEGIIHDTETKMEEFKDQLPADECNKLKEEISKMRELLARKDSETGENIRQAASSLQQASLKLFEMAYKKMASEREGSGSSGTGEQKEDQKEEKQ
Chain of mortalin (HSPA9) (UniProt P38646) (P38646 47-679): as above

Molecule: Bcl-2 (from UniProt P10415 1-239) (natural protein)
Kd (mortalin (HSPA9) [1]): 171 nM

Ki [3]: 3540 nM | Ki [4]: 1430 nM
B1: full-length human p66Shc (wildtype) (natural protein, UniProt P29353-1 1-583, looked up)
chain: MDLLPPKPKYNPLRNESLSSLEEGASGSTPPEELPSPSASSLGPILPPLPGDDSPTTLCSFFPRMSNLRLANPAGGRPGSKGEPGRAADDGEGIVGAAMPDSGPLPLLQDMNKLSGGGGRRTRVEGGQLGGEEWTRHGSFVNKPTRGWLHPNDKVMGPGVSYLVRYMGCVEVLQSMRALDFNTRTQVTREAISLVCEAVPGAKGATRRRKPCSRPLSSILGRSNLKFAGMPITLTVSTSSLNLMAADCKQIIANHHMQSISFASGGDPDTAEYVAYVAKDPVNQRACHILECPEGLAQDVISTIGQAFELRFKQYLRNPPKLVTPHDRMAGFDGSAWDEEEEEPPDHQYYNDFPGKEPPLGGVVDMRLREGAAPGAARPTAPNAQTPSHLGATLPVGQPVGGDPEVRKQMPPPPPCPGRELFDDPSYVNVQNLDKARQAVGGAGPPNPAINGSAPRDLFDMKPFEDALRVPPPPQSVSMAEQLRGEPWFHGKLSRREAEALLQLNGDFLVRESTTTPGQYVLTGLQSGQPKHLLLVDPEGVVRTKDHRFESVSHLISYHMDNHLPIISAGSELCLQQPVERKL
modifications: Alexa 647 label (only in the MST with cytochrome c, where p66Shc was the labelled protein)
Kd (mortalin (HSPA9) [2]): 858 nM
